The values below come from patent US20060128618A1 (APLAGEN, published 2006).

This assay addresses T1, erythropoietin receptor (UniProt P19235 25-508, limits assumed).
T1 sequence (looked up): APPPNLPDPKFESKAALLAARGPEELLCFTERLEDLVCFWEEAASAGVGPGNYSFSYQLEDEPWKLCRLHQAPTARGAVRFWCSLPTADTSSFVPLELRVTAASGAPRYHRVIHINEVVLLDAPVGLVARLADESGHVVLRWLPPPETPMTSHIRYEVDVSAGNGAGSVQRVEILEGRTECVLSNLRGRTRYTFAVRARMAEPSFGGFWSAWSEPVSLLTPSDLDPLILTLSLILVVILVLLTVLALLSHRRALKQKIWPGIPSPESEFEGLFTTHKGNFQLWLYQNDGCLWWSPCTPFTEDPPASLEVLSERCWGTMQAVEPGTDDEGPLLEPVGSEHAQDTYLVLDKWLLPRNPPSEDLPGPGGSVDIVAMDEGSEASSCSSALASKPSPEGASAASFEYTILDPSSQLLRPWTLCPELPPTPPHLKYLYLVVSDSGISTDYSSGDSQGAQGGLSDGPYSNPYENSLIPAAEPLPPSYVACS
The assay is described as follows: cell-based or functional assay.

*1 amine or outer side, *2 acyl side, *3 side chain or, on linkers, in order; H or OH if unused. Bridges are numbered along the chain shown (N, C = ends). Where no end group is shown, it is not given here. [ ]: non-standard residue; d: D form. Als = 5-aminolevulinic acid, O=C(CCC(=O)[*:2])CN[*:1]

B1: peptide SEQ. ID NO. 2 GGTYSCHFGKLTWVCKKQGG (peptide)
peptide: GGTYSCHFGKLTWVCKKQGG
modifications: disulfide 6-15 (inferred)
With B1, the “EC50, proliferation assay with TF-1 cells by MTT” value (“EC50, proliferation assay” for short) was determined as 3.28 µM.

B2: peptide SEQ. ID NO. 8 GGTYSCHF-(Als)-LTWVCKKQGG (peptide)
peptide: GGTYSCHF[Als]LTWVCKKQGG
modifications: disulfide 6-14 (inferred)
B2: the “EC50, proliferation assay” value was 5 µM.

B3: peptide SEQ. ID NO. 4 GGTYSCHFGKLTWVCKPQGG (peptide)
peptide: GGTYSCHFGKLTWVCKPQGG
modifications: disulfide 6-15 (inferred)
For B3, the “EC50, proliferation assay” value was determined as 4.66 µM.

B4: peptide SEQ. ID NO. 6 GGTYSCHFGRLTWVCKKQGG (peptide)
peptide: GGTYSCHFGRLTWVCKKQGG
modifications: disulfide 6-15 (inferred)
For B4, the “EC50, proliferation assay” value turned out to be 4.97 µM.

B5: peptide GGTYSCHFGPLTWVCKKQGG (peptide)
peptide: GGTYSCHFGPLTWVCKKQGG
modifications: disulfide 6-15 (inferred)
As for B5, the “EC50, proliferation assay” value was found to be 2.52 µM.

B6: peptide SEQ. ID NO. 7 GGTYSCHF-(Als)-LTWVCKPQGG (peptide)
peptide: GGTYSCHF[Als]LTWVCKPQGG
modifications: disulfide 6-14 (inferred)
As to B6, the “EC50, proliferation assay” value turned out to be 5.26 µM.

B7: peptide GGTYSCHFAKLTWVCKKQGG (peptide)
peptide: GGTYSCHFAKLTWVCKKQGG
modifications: disulfide 6-15 (inferred)
For B7, the “EC50, proliferation assay” value was found to be 5.04 µM.

B8: peptide SEQ. ID NO. 5 GGTYSCHFGRLTWVCKPQGG (peptide)
peptide: GGTYSCHFGRLTWVCKPQGG
modifications: disulfide 6-15 (inferred)
Consider B8, for which the “EC50, proliferation assay” value is 5.16 µM.
